No end group written: not given here.
Assays:
rhAngiostatin [1] = target: T1, rhAngiostatin (Homo sapiens, UniProt P00747); experiment: Panning of CX7C phage library on rhAngiostatin (clone frequency); format: binding; details: clones sequenced after panning on rhAngiostatin
T1 construct: rh-Angiostatin and rh-Endostatin were produced by EntreMed, Inc; purchased EntreMed, Inc. (Rockville, Md.)
Description: (§1) A phage library displaying random cyclic peptides with the structure CX7C (C, cysteine; X, any residue) was prepared. An aliquot of the library containing 3×10^10 transducing units (TU) was screened with rhAngiostatin protein coated on microtiter wells as described (Koivunen et al 1993). In the first and second panning the amount of protein used was 10 μg/well. To increase the stringency of panning, the wells were coated with a decreased concentration of rhAngiostatin protein (100 ng/well) in the third panning. Phage remained bound after extensive washing. Bound phage were recovered by infection into F-pilus positive K91 bacteria. To determine the specificity of rhAngiostatin binding, selected phage were assayed as described but using rh-Endostatin and BSA proteins to coat the wells. In all assays, insertless phage (fdtet) was used as a control.
(§2) Phage were sequenced from randomly selected clones after three rounds of panning (Koivunen et al., 1994, 1995; Pasqualini et al., 1995). A number of distinct angiostatin-targeting sequences were identified (Table 10). Randomly selected clones from rounds II and III were sequenced. Amino acid sequences of the phagemid encoded peptides were deduced from nucleotide sequences. A consensus sequence appeared on the third round in 61% of the sequences examined (26 out of 42)—CWSLEXXKC (SEQ D NO: 141). Including the closely related sequence CWSAEWTKC (SEQ ID NO: 142) the consensus motif accounted for 71% of Angiostatin binding peptides. The ratios in the last two columns of Table 10 were calculated by dividing the number of colonies recovered from rhAngiostatin-coated wells by those recovered from rh-Endostatin or BSA wells.

[2] = tested on: antibodies present in the serum; experiment: ELISA of sera on immobilized GST-fusion peptides; format: binding, human; details: for reactivity of serum against peptide in presence of the corresponding synthetic peptide: data not shown; for ELISA reactivity of patient serum with GST-fusion peptide: serum of the patients selected for the screenings, GST alone as negative control
Description: A 20 μg/ml solution of purified GST or GST-fusion proteins in 0.1M NaHCO3 was used to coat maxisorp multi-well plates (Nalge Nunc International Corporation) and incubated overnight at 4° C. The plates were blocked in a blocking buffer (4% milk, 2% casein, and 0.05% Tween-20) for 3-4 hours. A series of […] (1:100-1:1200) of sera from prostate cancer patients or healthy individuals was added and incubated for 1.5 hours and then washed five times with washing buffer (1% milk, 0.5% casein, and 0.025% Tween-20), followed by incubation at 4° C. with anti-human allaline phosphatase-conjugated antibodies (Gibco). The plates were then washed six times in washing buffer and developed using p-NPP (Sigma) as a substrate. An automatic ELISA plate reader (BIO-TEK instrument) recorded the results at OD405 nm.
Probabilities of survival for each group were estimated using the Kaplan-Meier method. A log-rank test was implemented in order to detect significant differences between the groups. Reactivity was considered to be detected if the ratio between GST-peptide and GST alone was greater or equal to two by the ELISA data. The Cox proportional hazards model was applied to analyze the effect of single and multiple risk factors in association with survival. Martingale residual plots were used to assess the proportional hazard assumption. P-values less than 0.05 were considered significant. All analyses were performed using SPLUS statistical software.
ELISA was performed to assess if the peptides could be specifically recognized by the antibodies present in the serum of the patients selected for the screenings. Peptides A (CHQKPWEC, SEQ ID NO: 58), B (CKDRFERC, SEQ ID NO: 59), and C (CNVSDKSC, SEQ ID NO: 60) were produced as GST-fusion proteins and immobilized onto microtiter wells, along with GST alone as a negative control. For each sample tested, a series of 100-fold dilutions was performed. […] The reactivity of each serum against peptides A, B and C was inhibited by the corresponding synthetic peptides (data not shown).
The reactivity profile of 91 sera obtained from clinically annotated prostate cancer patients was examined. Sera from 34 healthy individuals were also tested as a control for specificity. ELISA was performed to evaluate each serum using the three selected peptides (A, B, and C). The sera obtained from patients with prostate cancer were divided into three groups: 35 originated from patients with localized adenocarcinomas, 27 from patients with metastatic androgen-dependent disease, and 29 originated from patients with metastatic androgen-independent disease.

[3] = tested on: cells infected by targeted phage vectors; experiment: Enhancement of phage transduction by genotoxic agents or genetic trans-complementation; format: cell-based; details: genotoxic drug 10 μM added 36 hours after infection, analysis at 72 hours post-infection
Description: Semi-confluent cells were infected with 10^5 TU of phage per cell for 4 hours in serum free media, after which fresh medium supplemented with FCS was added (no phage were washed out or removed). In some experiments, a phage admixture of forward and reverse clones at 10^10 TU (forward/reverse molar ratio=1) was tested. Next, cells were incubated for 36 hours followed by the addition of genotoxic drugs (topotecan, 10 μM; cisplatin, 10 μM) or administration of UV radiation (15 J/m^2) with a cross-linker apparatus (UV Stratalinker Model 2400; Stratagene). At 72 hours post-infection, the cells were analyzed for transduction of a reporter gene (β-gal or GFP), and gene expression was normalized per cell number relative to controls.

CD13 (Aminopeptidase N) = experiment: competition against rhAngiostatin binding to coated CD13, 0.5 µg peptide; not shown
[4] = tested on: IgG from the ovarian cancer patient; experiment: Binding of phage to IgGs isolated from ovarian cancer patient ascites or serum; set-up: species or system human
Description: FIG. 22. Binding of phage containing the CVPELGHEC (SEQ ID NO: 271) and CFELGFELGC (SEQ ID NO: 272) targeting peptides to IgG's isolated from ovarian cancer patient #2 ascites, normal serum and BSA.
FIG. 23. Binding of phage containing the CVPELGHEC (SEQ ID NO: 271) targeting peptide to IgG's isolated from normal serum or from ascites of ovarian cancer patient #1 or #2. Control fd-tet phage contained no insert DNA.
FIG. 24. Binding of phage containing the CVPELGHEC (SEQ ID NO: 271) targeting peptide to IgG's isolated from serum of ovarian cancer patient #2, normal serum or BSA.
To select peptides specific to the ascitic fluid of ovarian cancer patients, IgGs from normal donor serum and ovarian cancer cell free ascitic fluid were bound to Protein agarose (Pierce) in the Pierce acetate, pH5 binding buffer. A two step biopanning procedure was employed in which the first step involved pre-clearing the phage peptide library by incubating it with IgGs isolated from normal donor serum in order to remove common antigens. This was followed by a second step where the pre-cleared library was used to screen cancer specific IgGs. Approximately 10^8 transforming units were added to the IgGs for the panning procedure. The resultant IgG-bound phage were recovered by eluting the phage with 0.1M glycine buffer, pH2.2, neutralizing the phage with 0.1 volume 1 M Tris-Cl, pH 9, and using the phage to infect stationary phase Escherichia coli strain K91. Serial dilutions of phage infected-K91 were plated onto tetracycline (40 μg/ml) LB agar plates and grown overnight at 37° C. Individual clones were picked, amplified, and precipitated for subsequent rounds of panning. A total of three rounds of selection were performed. Phage clones from the second and third rounds were subject to PCR followed by sequence analysis to evaluate enrichment of the most consistently binding peptide sequences.

rhAngiostatin [5] = target: T2, rhAngiostatin (human, UniProt P00747 98-357, limits assumed); experiment: phage binding to coated wells; colonies from rhAngiostatin wells divided by those from BSA wells
Description: as §1, with “CX₇C” for “CX7C”, “3×10¹⁰” for “3×10^10”
as §2, with “CWSAEWTKC” left out

rhAngiostatin [6] = target: T2, rhAngiostatin; experiment: phage binding to coated wells; colonies from rhAngiostatin wells divided by those from rh-Endostatin wells
Description: as §1, with “CX₇C” for “CX7C”, “3×10¹⁰” for “3×10^10”
as §2, with “CWSAEWTKC” left out

T2 sequence (P00747 98-357 limits assumed): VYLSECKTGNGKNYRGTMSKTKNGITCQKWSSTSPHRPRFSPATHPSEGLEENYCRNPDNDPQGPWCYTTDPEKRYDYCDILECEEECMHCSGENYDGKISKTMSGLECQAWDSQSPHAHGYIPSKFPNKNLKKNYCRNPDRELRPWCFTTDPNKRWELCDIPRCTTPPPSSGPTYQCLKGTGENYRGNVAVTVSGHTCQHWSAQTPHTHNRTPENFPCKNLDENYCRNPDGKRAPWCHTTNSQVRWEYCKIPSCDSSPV
T1 sequence (P00747 79-466 limits assumed): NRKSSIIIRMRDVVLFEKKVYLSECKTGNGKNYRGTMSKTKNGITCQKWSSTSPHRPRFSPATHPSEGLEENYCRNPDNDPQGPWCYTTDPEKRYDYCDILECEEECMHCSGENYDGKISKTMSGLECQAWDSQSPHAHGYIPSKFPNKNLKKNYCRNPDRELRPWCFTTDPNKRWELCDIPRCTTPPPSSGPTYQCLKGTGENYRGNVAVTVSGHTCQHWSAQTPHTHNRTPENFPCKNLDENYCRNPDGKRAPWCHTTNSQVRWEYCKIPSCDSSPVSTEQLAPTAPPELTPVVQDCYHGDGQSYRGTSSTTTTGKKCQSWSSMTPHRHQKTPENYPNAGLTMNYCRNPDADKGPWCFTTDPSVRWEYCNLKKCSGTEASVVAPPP
Sequence of CD13 (Aminopeptidase N) (P15145 2-963): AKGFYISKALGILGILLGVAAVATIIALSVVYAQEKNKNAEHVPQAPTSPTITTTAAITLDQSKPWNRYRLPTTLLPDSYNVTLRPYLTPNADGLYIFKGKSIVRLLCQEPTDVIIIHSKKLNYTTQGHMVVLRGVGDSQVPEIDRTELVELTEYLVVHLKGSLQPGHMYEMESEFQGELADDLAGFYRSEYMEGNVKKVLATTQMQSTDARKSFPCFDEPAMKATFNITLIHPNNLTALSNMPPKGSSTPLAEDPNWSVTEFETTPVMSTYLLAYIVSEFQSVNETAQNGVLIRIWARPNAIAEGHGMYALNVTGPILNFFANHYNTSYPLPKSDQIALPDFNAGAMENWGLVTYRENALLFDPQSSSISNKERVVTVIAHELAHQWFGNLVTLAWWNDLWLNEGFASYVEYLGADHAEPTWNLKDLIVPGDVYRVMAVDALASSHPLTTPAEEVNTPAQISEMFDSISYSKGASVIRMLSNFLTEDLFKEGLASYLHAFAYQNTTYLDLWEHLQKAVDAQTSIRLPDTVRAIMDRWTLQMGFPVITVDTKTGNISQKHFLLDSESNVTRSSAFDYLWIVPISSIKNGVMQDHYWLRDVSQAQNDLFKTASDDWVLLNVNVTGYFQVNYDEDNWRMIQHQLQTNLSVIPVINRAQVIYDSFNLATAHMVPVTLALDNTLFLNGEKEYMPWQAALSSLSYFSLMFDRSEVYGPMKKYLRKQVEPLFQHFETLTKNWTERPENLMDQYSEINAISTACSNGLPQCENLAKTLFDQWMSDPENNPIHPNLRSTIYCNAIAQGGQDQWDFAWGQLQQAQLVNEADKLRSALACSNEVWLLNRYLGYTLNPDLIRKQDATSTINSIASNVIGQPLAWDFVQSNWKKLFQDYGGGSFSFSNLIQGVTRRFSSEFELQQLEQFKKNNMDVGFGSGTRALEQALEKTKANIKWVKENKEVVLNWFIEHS

## CWSAEWTKC
rhAngiostatin [1]
  frequency: 4/42

## CSLQGIVGC
rhAngiostatin [1]
  frequency: 1/42

## CWSLELLKC
rhAngiostatin [1]
  frequency: 2/42

## CWSLEFTKC
rhAngiostatin [1]
  frequency: 5/42

## CRVLADRDC
rhAngiostatin [1]
  frequency: 1/42

## CKDRFERC [peptide B]
[2]
  reactivity of serum against peptide in presence of the corresponding synthetic peptide: inhibited
  ELISA reactivity of patient serum with GST-fusion peptide: strong reactivity

## CHQKPWEC [peptide A]
[2]
  reactivity of serum against peptide in presence of the corresponding synthetic peptide: inhibited
  ELISA reactivity of patient serum with GST-fusion peptide: strong reactivity

## CGGREFWLC
rhAngiostatin [1]
  frequency: 1/42

## CVAADRYVC
rhAngiostatin [1]
  frequency: 1/42

## CSRSVSRLC
rhAngiostatin [1]
  frequency: 1/42

## CLAWVGGRC
rhAngiostatin [1]
  frequency: 1/42

## CRWSSMIWC
rhAngiostatin [1]
  frequency: 1/42

## CWSLELSKC
rhAngiostatin [1]
  frequency: 10/42

## CC[C@@]1(O)C(=O)OCc2c1cc1n(c2=O)Cc2cc3c(CN(C)C)c(O)ccc3nc2-1 [topotecan]
[3]
  gene transduction by targeted phage vectors relative to controls: several fold higher

## CWSLESLKC
rhAngiostatin [1]
  frequency: 4/42

## NGR peptide (Burg et al., 1999)
CD13 (Aminopeptidase N)
  percent inhibition of angiostatin binding to CD13: > 50%

## CWSLEVAKC
rhAngiostatin [1]
  frequency: 5/42

## CQGKFSQRC
rhAngiostatin [1]
  frequency: 1/42

## CYGAWRVSC
rhAngiostatin [1]
  frequency: 1/42

## CVPELGHEC
[4]; FIG. 22
  phage binding to IgG from ovarian cancer patient #2 ascites versus IgG from a normal patient or BSA: very high selectivity
[4]; FIG. 23
  phage binding to IgGs from patient #2 compared to patient #1 or normal individuals: much higher affinity
[4]; FIG. 24
  phage binding to serum from patient #2 compared to BSA or normal serum: similarly high selectivity

## CGVVSRVGC
rhAngiostatin [1]
  frequency: 1/42

## N.N.[Cl][Pt][Cl] [cisplatin]
[3]
  gene transduction by targeted phage vectors relative to controls: several fold higher

## CNVSDKSC [peptide C]
[2]
  reactivity of serum against peptide in presence of the corresponding synthetic peptide: inhibited
  ELISA reactivity of patient serum with GST-fusion peptide: strong reactivity

B1: phage displaying CWSLEVAKC (peptide)
peptide: CWSLEVAKC
modifications: not fully specified (bridges); cysteine pairing not given here; also: displayed on phage
rhAngiostatin [5]
  rh-Angio/BSA (ratio of colonies recovered): 1120 ratio
rhAngiostatin [6]
  rh-Angio/rhEndo (ratio of colonies recovered): 486 ratio

B2: phage displaying CRWSSMIWC (peptide)
peptide: CRWSSMIWC
modifications: not fully specified (bridges); cysteine pairing not given here; also: displayed on phage
rhAngiostatin [5]
  rh-Angio/BSA (ratio of colonies recovered): 11 ratio
rhAngiostatin [6]
  rh-Angio/rhEndo (ratio of colonies recovered): 7 ratio

B3: phage displaying CYGAWRVSC (peptide)
peptide: CYGAWRVSC
modifications: not fully specified (bridges); cysteine pairing not given here; also: displayed on phage
rhAngiostatin [5]
  rh-Angio/BSA (ratio of colonies recovered): 14 ratio
rhAngiostatin [6]
  rh-Angio/rhEndo (ratio of colonies recovered): 6 ratio

B4: phage displaying CWSLEFTKC (peptide)
peptide: CWSLEFTKC
modifications: not fully specified (bridges); cysteine pairing not given here; also: displayed on phage
rhAngiostatin [5]
  rh-Angio/BSA (ratio of colonies recovered): 958 ratio
rhAngiostatin [6]
  rh-Angio/rhEndo (ratio of colonies recovered): 958 ratio

B5: phage displaying CWSLELLKC (peptide)
peptide: CWSLELLKC
modifications: not fully specified (bridges); cysteine pairing not given here; also: displayed on phage
rhAngiostatin [5]
  rh-Angio/BSA (ratio of colonies recovered): 734 ratio
rhAngiostatin [6]
  rh-Angio/rhEndo (ratio of colonies recovered): 489 ratio

B6: phage displaying CWSLELSKC (peptide)
peptide: CWSLELSKC
modifications: not fully specified (bridges); cysteine pairing not given here; also: displayed on phage
rhAngiostatin [5]
  rh-Angio/BSA (ratio of colonies recovered): 630 ratio
rhAngiostatin [6]
  rh-Angio/rhEndo (ratio of colonies recovered): 630 ratio

B7: phage displaying CWSAEWTKC (peptide)
peptide: CWSAEWTKC
modifications: not fully specified (bridges); cysteine pairing not given here; also: displayed on phage
rhAngiostatin [5]
  rh-Angio/BSA (ratio of colonies recovered): 892 ratio
rhAngiostatin [6]
  rh-Angio/rhEndo (ratio of colonies recovered): 124 ratio
